B1: unlabeled octamer oligonucleotide (dsDNA)
DNA 1: GCCGAATTTGCATATTTGCATGGCTG
DNA 2: CAGCCATGCAAATATGCAAATTCGGC
B2: octamer oligonucleotide (Ig heavy chain enhancer) (dsDNA)
DNA 1: GCCGAATTTGCATATTTGCATGGCTG
DNA 2: CAGCCATGCAAATATGCAAATTCGGC

Key:
GST-OCT4 [1] = target: T1, GST-OCT4 (human, UniProt Q01860 1-360); experiment: competition; 50-fold excess unlabeled oligonucleotide abolishes complex; LI-COR Odyssey EMSA kit 1x binding buffer (composition and pH not given), 2.5 mM DTT, 0.25% Tween-20, 1 ug poly(dI-dC) in 20 ul, 20 min at RT; 4% native PAGE in 0.5x TBE; conditions: protein: recombinant; tags: GST (N-terminal, pAcG2T); label: none; (only one strand printed)
GST-OCT4 [2] = target: T1, GST-OCT4; experiment: EMSA; soluble OCT4, 30 ng per lane; LI-COR Odyssey EMSA kit 1x binding buffer (composition and pH not given), 2.5 mM DTT, 0.25% Tween-20, 1 ug poly(dI-dC) in 20 ul, 20 min at RT; 4% native PAGE in 0.5x TBE; conditions: protein: recombinant; tags: GST (N-terminal, pAcG2T); label: IRDye 700; (only one strand printed)

T1 sequence (Q01860 whole entry): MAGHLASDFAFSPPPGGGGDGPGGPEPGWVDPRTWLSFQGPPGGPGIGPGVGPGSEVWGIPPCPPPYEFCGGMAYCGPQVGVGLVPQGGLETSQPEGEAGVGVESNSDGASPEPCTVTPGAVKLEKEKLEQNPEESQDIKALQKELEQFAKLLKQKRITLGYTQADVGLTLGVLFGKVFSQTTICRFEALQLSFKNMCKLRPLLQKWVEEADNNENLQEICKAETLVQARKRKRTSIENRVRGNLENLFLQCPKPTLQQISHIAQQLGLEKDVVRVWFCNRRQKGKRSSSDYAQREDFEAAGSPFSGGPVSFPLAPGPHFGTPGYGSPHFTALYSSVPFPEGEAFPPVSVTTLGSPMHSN

Binder	binding result (GST-OCT4 [1])	binding result (GST-OCT4 [2])
B1	binds	
B2		binds
